B1: Sis1 single alteration variant K199N (natural protein, S. cerevisiae, UniProt P25294 1-352, looked up)
chain: MVKETKLYDLLGVSPSANEQELKKGYRKAALKYHPDKPTGDTEKFKEISEAFEILNDPQKREIYDQYGLEAARSGGPSFGPGGPGGAGGAGGFPGGAGGFSGGHAFSNEDAFNIFSQFFGGSSPFGGADDSGFSFSSYPSGGGAGMGGMPGGMGGMHGGMGGMPGGFRSASSSPTYPEEETVQVNLPVSLEDLFVGKKNSFKIGRKGPHGASEKTQIDIQLKPGWKAGTKITYKNQGDYNPQTGRRKTLQFVIQEKSHPNFKRDGDDLIYTLPLSFKESLLGFSKTIQTIDGRTLPLSRVQPVQPSQTSTYPGQGMPTPKNPSQRGNLIVKYKVDYPISLNDAQKRAIDENF
B2: Sis1 single alteration variant K214N (natural protein, S. cerevisiae, UniProt P25294 1-352, looked up)
chain: MVKETKLYDLLGVSPSANEQELKKGYRKAALKYHPDKPTGDTEKFKEISEAFEILNDPQKREIYDQYGLEAARSGGPSFGPGGPGGAGGAGGFPGGAGGFSGGHAFSNEDAFNIFSQFFGGSSPFGGADDSGFSFSSYPSGGGAGMGGMPGGMGGMHGGMGGMPGGFRSASSSPTYPEEETVQVNLPVSLEDLFVGKKKSFKIGRKGPHGASENTQIDIQLKPGWKAGTKITYKNQGDYNPQTGRRKTLQFVIQEKSHPNFKRDGDDLIYTLPLSFKESLLGFSKTIQTIDGRTLPLSRVQPVQPSQTSTYPGQGMPTPKNPSQRGNLIVKYKVDYPISLNDAQKRAIDENF
B3: Sis1 single alteration variant K202N (natural protein, S. cerevisiae, UniProt P25294 1-352, looked up)
chain: MVKETKLYDLLGVSPSANEQELKKGYRKAALKYHPDKPTGDTEKFKEISEAFEILNDPQKREIYDQYGLEAARSGGPSFGPGGPGGAGGAGGFPGGAGGFSGGHAFSNEDAFNIFSQFFGGSSPFGGADDSGFSFSSYPSGGGAGMGGMPGGMGGMHGGMGGMPGGFRSASSSPTYPEEETVQVNLPVSLEDLFVGKKKSFNIGRKGPHGASEKTQIDIQLKPGWKAGTKITYKNQGDYNPQTGRRKTLQFVIQEKSHPNFKRDGDDLIYTLPLSFKESLLGFSKTIQTIDGRTLPLSRVQPVQPSQTSTYPGQGMPTPKNPSQRGNLIVKYKVDYPISLNDAQKRAIDENF

molecular target: Ssa1 Hsp70 (S. cerevisiae, UniProt P10591 1-642); test: ELISA
Sequence (P10591 whole entry): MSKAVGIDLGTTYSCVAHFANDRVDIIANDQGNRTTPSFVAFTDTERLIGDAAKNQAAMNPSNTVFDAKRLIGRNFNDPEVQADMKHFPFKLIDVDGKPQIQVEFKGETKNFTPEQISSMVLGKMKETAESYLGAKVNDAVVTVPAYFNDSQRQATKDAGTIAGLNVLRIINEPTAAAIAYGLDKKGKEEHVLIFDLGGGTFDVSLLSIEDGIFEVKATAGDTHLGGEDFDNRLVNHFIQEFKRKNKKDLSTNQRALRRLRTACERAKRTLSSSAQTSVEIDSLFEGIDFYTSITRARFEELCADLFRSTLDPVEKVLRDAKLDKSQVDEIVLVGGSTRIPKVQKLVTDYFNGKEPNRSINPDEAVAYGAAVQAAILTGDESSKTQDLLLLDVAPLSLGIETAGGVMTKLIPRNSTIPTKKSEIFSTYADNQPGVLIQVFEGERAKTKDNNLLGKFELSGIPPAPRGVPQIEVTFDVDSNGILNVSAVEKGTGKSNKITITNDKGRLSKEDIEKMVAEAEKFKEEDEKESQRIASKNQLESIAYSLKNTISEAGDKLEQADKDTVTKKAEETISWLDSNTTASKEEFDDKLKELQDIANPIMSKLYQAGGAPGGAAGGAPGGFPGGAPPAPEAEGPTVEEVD

Binding result, binds:
B1
B2
B3

— publication PMC4357533 (Journal of molecular biology, 2015)
